Conditions: Saccharomyces cerevisiae (strain ATCC 204508 / S288c), reversible: yes
[1] = pH 4.6, 27 °C, Thermal, DSC, Potassium acetate 50 mM, structure 1YCC
[2] = pH 4.6, Thermal, DSC, Potassium acetate 50 mM, structure 1YCC
[3] = pH 7, 22 °C, GdnHCl, Fluorescence, Potassium phosphate 0.1 M, structure 1YCC
[4] = pH 3.5, 27 °C, Thermal, DSC, Potassium acetate 50 mM, structure 1YCC
[5] = pH 3.5, Thermal, DSC, Potassium acetate 50 mM, structure 1YCC
[6] = pH 4, 27 °C, Thermal, DSC, Potassium acetate 50 mM, structure 1YCC
[7] = pH 5, 27 °C, Thermal, DSC, Potassium acetate 50 mM, structure 1YCC
[8] = pH 5, Thermal, DSC, Potassium acetate 50 mM, structure 1YCC
[9] = pH 4, Thermal, DSC, Potassium acetate 50 mM, structure 1YCC
[10] = pH 3.5, Thermal, DSC, Potassium acetate 50 mM
[11] = pH 4, Thermal, DSC, Potassium acetate 50 mM
[12] = pH 4.6, Thermal, DSC, Potassium acetate 50 mM
[13] = pH 5, Thermal, DSC, Potassium acetate 50 mM
[14] = pH 7, 22 °C, GdnHCl, Fluorescence, Potassium phosphate 0.1 M

Cytochrome c isoform 1 N58S, P00044, sequence (P00044 whole entry N58S, canonical isoform): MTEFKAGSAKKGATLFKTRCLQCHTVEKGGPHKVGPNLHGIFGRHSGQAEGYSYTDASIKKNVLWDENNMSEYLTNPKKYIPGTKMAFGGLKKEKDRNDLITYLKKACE
Cytochrome c isoform 1 N58A, P00044, sequence (P00044 whole entry N58A, canonical isoform): as the sequence (P00044 whole entry N58S, canonical isoform) above, with S58A counted along it
Cytochrome c isoform 1 N58M, P00044, sequence (P00044 whole entry N58M, canonical isoform): as the sequence (P00044 whole entry N58S, canonical isoform) above, with S58M counted along it
Cytochrome c isoform 1 N58H, P00044, sequence (P00044 whole entry N58H, canonical isoform): as the sequence (P00044 whole entry N58S, canonical isoform) above, with S58H counted along it
Cytochrome c isoform 1 N58V, P00044, sequence (P00044 whole entry N58V, canonical isoform): as the sequence (P00044 whole entry N58S, canonical isoform) above, with S58V counted along it
Cytochrome c isoform 1 N58I, P00044, sequence (P00044 whole entry N58I, canonical isoform): as the sequence (P00044 whole entry N58S, canonical isoform) above, with S58I counted along it
Cytochrome c isoform 1 N58Q, P00044, sequence (P00044 whole entry N58Q, canonical isoform): as the sequence (P00044 whole entry N58S, canonical isoform) above, with S58Q counted along it
Cytochrome c isoform 1 wild type, P00044, sequence (P00044 whole entry, canonical isoform): as the sequence (P00044 whole entry N58S, canonical isoform) above, with S58N counted along it
Cytochrome c isoform 1 N58T, P00044, sequence (P00044 whole entry N58T, canonical isoform): as the sequence (P00044 whole entry N58S, canonical isoform) above, with S58T counted along it

Substance | ddG of mutation (higher = less stable) [1] | unfolding free energy [1] | Tm [2] | change of melting temperature, mutant - wild type (higher = more stable) [2] | unfolding enthalpy (calorimetric) [2] | ddG of mutation (higher = less stable) [3] | denaturant midpoint (higher = more stable) [3] | unfolding free energy [3] | ddG of mutation (higher = less stable) [6] | unfolding free energy [6] | ddG of mutation (higher = less stable) [7] | unfolding free energy [7] | Tm [8] | change of melting temperature, mutant - wild type (higher = more stable) [8] | unfolding enthalpy (calorimetric) [8] | Tm [9] | change of melting temperature, mutant - wild type (higher = more stable) [9] | unfolding enthalpy (calorimetric) [9] | further results
Cytochrome c isoform 1 N58A, P00044 | -0.63 kcal/mol | 4.66 kcal/mol | 53.7 °C | 4.5 °C | 84 kcal/mol | -2.97 kcal/mol | 1.52 M | 8.83 kcal/mol |  |  |  |  |  |  |  |  |  |  | 
Cytochrome c isoform 1 N58H, P00044 | 1.27 kcal/mol | 2.76 kcal/mol | 47.5 °C | -1.7 °C | 64.1 kcal/mol | 1.7 kcal/mol | 1.41 M | 4.16 kcal/mol |  |  |  |  |  |  |  |  |  |  | 
Cytochrome c isoform 1 N58I, P00044 |  |  | 62.2 °C | 13 °C | 101 kcal/mol | -4.1 kcal/mol | 2.09 M | 9.96 kcal/mol | -3.03 kcal/mol | 5.55 kcal/mol | -2.02 kcal/mol | 7.64 kcal/mol | 64.2 °C | 0.9 °C | 108 kcal/mol |  |  |  | ddG of mutation (higher = less stable) [4]: -2.62 kcal/mol; unfolding free energy [4]: 4.26 kcal/mol; Tm [5]: 52.4 °C; change of melting temperature, mutant - wild type (higher = more stable) [5]: 12.3 °C; unfolding enthalpy (calorimetric) [5]: 80.7 kcal/mol
Cytochrome c isoform 1 N58L, P00044 | -2.56 kcal/mol | 6.59 kcal/mol | 62.1 °C | 12.9 °C | 97.4 kcal/mol | -4.73 kcal/mol | 2.17 M | 10.6 kcal/mol |  |  |  |  |  |  |  |  |  |  | 
Cytochrome c isoform 1 N58M, P00044 | -2.25 kcal/mol | 6.28 kcal/mol | 62.6 °C | 13.4 °C | 96 kcal/mol | -4.04 kcal/mol | 2.14 M | 9.9 kcal/mol | -2.91 kcal/mol | 5.43 kcal/mol |  |  |  |  |  | 58.9 °C | 13.5 °C | 89 kcal/mol | 
Cytochrome c isoform 1 N58Q, P00044 |  | 3.95 kcal/mol | 51.2 °C | 2 °C | 78.7 kcal/mol |  | 1.39 M | 5.02 kcal/mol |  |  |  |  |  |  |  |  |  |  | 
Cytochrome c isoform 1 N58S, P00044 | 0.05 kcal/mol | 3.98 kcal/mol | 51 °C | 1.8 °C | 78.7 kcal/mol |  |  |  | -0.74 kcal/mol | 3.26 kcal/mol | 1.29 kcal/mol | 4.33 kcal/mol | 52.6 °C | -10.7 °C | 83.2 kcal/mol | 46.7 °C | 1.3 °C | 70.8 kcal/mol | 
Cytochrome c isoform 1 N58T, P00044 | -0.59 kcal/mol | 4.62 kcal/mol | 54.5 °C | 5.3 °C | 82.9 kcal/mol | -1.9 kcal/mol | 1.58 M | 7.76 kcal/mol | -1.01 kcal/mol | 3.53 kcal/mol | 0.53 kcal/mol | 5.09 kcal/mol | 55.3 °C | -8 °C | 88.6 kcal/mol | 49.2 °C | 3.8 °C | 75.3 kcal/mol | ddG of mutation (higher = less stable) [4]: -0.98 kcal/mol; unfolding free energy [4]: 2.62 kcal/mol; Tm [5]: 45.4 °C; change of melting temperature, mutant - wild type (higher = more stable) [5]: 5.3 °C; unfolding enthalpy (calorimetric) [5]: 63.4 kcal/mol
Cytochrome c isoform 1 N58V, P00044 | -1.67 kcal/mol | 5.7 kcal/mol | 58 °C | 8.8 °C | 92.4 kcal/mol | -2.02 kcal/mol | 1.77 M | 7.88 kcal/mol | -2.44 kcal/mol | 4.96 kcal/mol |  |  |  |  |  | 54.3 °C | 8.9 °C | 86.5 kcal/mol | 
Cytochrome c isoform 1 wild type, P00044 |  |  |  |  |  |  |  |  |  |  |  |  |  |  |  |  |  |  | unfolding free energy (pH 3.5, 27 °C, Thermal, DSC, Potassium acetate 50 mM): 1.64 kcal/mol; Tm [10]: 40.1 °C; unfolding enthalpy (calorimetric) [10]: 55.3 kcal/mol; unfolding free energy (pH 4, 27 °C, Thermal, DSC, Potassium acetate 50 mM): 2.52 kcal/mol; Tm [11]: 45.4 °C; unfolding enthalpy (calorimetric) [11]: 64.2 kcal/mol; unfolding free energy (pH 4.6, 27 °C, Thermal, DSC, Potassium acetate 50 mM): 4.03 kcal/mol; Tm [12]: 49.2 °C; unfolding enthalpy (calorimetric) [12]: 78.8 kcal/mol; unfolding free energy (pH 5, 27 °C, Thermal, DSC, Potassium acetate 50 mM): 5.62 kcal/mol; Tm [13]: 63.3 °C; unfolding enthalpy (calorimetric) [13]: 107 kcal/mol; denaturant midpoint (higher = more stable) [14]: 1.34 M; unfolding free energy [14]: 5.86 kcal/mol
